Assay results published in PMC4414246.

Molecular target: U1A E19S (UniProt P09012 10-89, E19S)
Test: fluorescence polarization

U1A E19S, sequence (P09012 10-89 E19S): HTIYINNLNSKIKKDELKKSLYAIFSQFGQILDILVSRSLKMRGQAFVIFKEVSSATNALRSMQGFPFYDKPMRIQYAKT

GGCAGAUCUGAGCCUGGGAGCUCUCUGCC (structured_RNA) [TAR RNA] was tested, and the binding signal was ~1.6 fold lower affinity than without tRNA.
